According to the supplement of paper PMC9112550, “Optimization of the antimicrobial peptide Bac7 by deep mutational scanning” (BMC Biology, 2022):

Tested on: Escherichia coli TOP10
Test: shrunken log2 fold change of peptide-encoding DNA abundance (4.5 h post-induction vs induction); higher = less antimicrobial activity (less host growth inhibition)
Conditions: time post-induction: 4.5 h; library: site-saturation at positions 5, 18, 19, 20
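Note: peptides expressed intracellularly from a pBAD plasmid library in pooled LB shake-flask culture, induced with 0.3% L-arabinose, DNA abundance read by NGS, three biological replicates, DESeq2 with apeglm shrinkage.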

Row | Sequence | shrunken log2 fold change
1 | RRIRTRPPRLPRPRPRPTKQPRP | -0.0507
2 | RRIRARPPRLPRPRPRPYGLPRP | 0.0316
3 | RRIRARPPRLPRPRPRPHFIPRP | 0.179
4 | RRIRHRPPRLPRPRPRPDCSPRP | -0.284
5 | RRIRLRPPRLPRPRPRPVEEPRP | 0.21
6 | RRIRKRPPRLPRPRPRPDLTPRP | -0.000918
7 | RRIRERPPRLPRPRPRPLRHPRP | 0.11
8 | RRIRDRPPRLPRPRPRPKFYPRP | 0.0101
9 | RRIRERPPRLPRPRPRPESEPRP | 0.0931
10 | RRIRTRPPRLPRPRPRPDVAPRP | -0.0174
11 | RRIRHRPPRLPRPRPRPLHQPRP | -0.00684
12 | RRIRKRPPRLPRPRPRPGMLPRP | 0.542
13 | RRIRPRPPRLPRPRPRPVHHPRP | -0.218
14 | RRIRIRPPRLPRPRPRPRVIPRP | -0.209
15 | RRIRTRPPRLPRPRPRPIVNPRP | -0.655
16 | RRIRKRPPRLPRPRPRPWAWPRP | -0.00174
17 | RRIRPRPPRLPRPRPRPQWFPRP | -0.0872
18 | RRIRVRPPRLPRPRPRPYKVPRP | -0.0222
19 | RRIRNRPPRLPRPRPRPKPYPRP | -0.342
20 | RRIRSRPPRLPRPRPRPVRPPRP | 0.742
21 | RRIRKRPPRLPRPRPRPSLSPRP | 0.549
22 | RRIRLRPPRLPRPRPRPNAIPRP | -0.385
23 | RRIRWRPPRLPRPRPRPMMSPRP | 0.19
24 | RRIRERPPRLPRPRPRPPNWPRP | 0.368
25 | RRIRNRPPRLPRPRPRPRSFPRP | 0.0523

Row | Sequence | shrunken log2 fold change
26 | RRIRLRPPRLPRPRPRPWLCPRP | -0.0198
27 | RRIRSRPPRLPRPRPRPAMWPRP | 0.0276
28 | RRIRLRPPRLPRPRPRPIDTPRP | 0.115
29 | RRIRLRPPRLPRPRPRPWLWPRP | -0.106
30 | RRIRARPPRLPRPRPRPCGHPRP | 0.0628
31 | RRIRTRPPRLPRPRPRPQMYPRP | -0.148
32 | RRIRRRPPRLPRPRPRPCTKPRP | -0.147
33 | RRIRVRPPRLPRPRPRPEDLPRP | 0.084
34 | RRIRGRPPRLPRPRPRPQLLPRP | 0.253
35 | RRIRLRPPRLPRPRPRPLWTPRP | -0.0559
36 | RRIRARPPRLPRPRPRPELTPRP | 1.38
37 | RRIRARPPRLPRPRPRPAHEPRP | 0.128
38 | RRIRNRPPRLPRPRPRPRPGPRP | 0.638
39 | RRIRWRPPRLPRPRPRPQVQPRP | 0.115
40 | RRIRIRPPRLPRPRPRPYYMPRP | -0.983
41 | RRIRGRPPRLPRPRPRPHAQPRP | 0.868
42 | RRIRERPPRLPRPRPRPWKHPRP | -0.176
43 | RRIRERPPRLPRPRPRPSCPPRP | -0.361
44 | RRIRGRPPRLPRPRPRPYYAPRP | -0.242
45 | RRIRFRPPRLPRPRPRPMSFPRP | -0.193
46 | RRIRYRPPRLPRPRPRPLKNPRP | -0.337
47 | RRIRQRPPRLPRPRPRPDEKPRP | 0.02
48 | RRIRGRPPRLPRPRPRPFPTPRP | 0.63
49 | RRIRDRPPRLPRPRPRPSWVPRP | -0.211
50 | RRIRRRPPRLPRPRPRPVNIPRP | -0.142

Row | Sequence | shrunken log2 fold change
51 | RRIRKRPPRLPRPRPRPMSWPRP | 5.25
52 | RRIRWRPPRLPRPRPRPRKTPRP | -0.0389
53 | RRIRQRPPRLPRPRPRPITMPRP | 0.00801
54 | RRIRIRPPRLPRPRPRPVVWPRP | 0.321
55 | RRIRKRPPRLPRPRPRPLGPPRP | 0.749
56 | RRIRCRPPRLPRPRPRPFPFPRP | -0.353
57 | RRIRRRPPRLPRPRPRPKDGPRP | 0.378
58 | RRIRCRPPRLPRPRPRPWDFPRP | -0.0326
59 | RRIRCRPPRLPRPRPRPMNWPRP | -0.217
60 | RRIRCRPPRLPRPRPRPTTEPRP | 0.419
61 | RRIRDRPPRLPRPRPRPDLAPRP | 0.814
62 | RRIRKRPPRLPRPRPRPDSIPRP | -0.0839
63 | RRIRWRPPRLPRPRPRPMYKPRP | -0.0607
64 | RRIRIRPPRLPRPRPRPPESPRP | 0.185
65 | RRIRHRPPRLPRPRPRPWCNPRP | -0.417
66 | RRIRRRPPRLPRPRPRPQYDPRP | -0.224
67 | RRIRRRPPRLPRPRPRPFTIPRP | 0.0518
68 | RRIRMRPPRLPRPRPRPGDVPRP | 0.333
69 | RRIRIRPPRLPRPRPRPDWHPRP | -0.882
70 | RRIRFRPPRLPRPRPRPFVPPRP | -0.668
71 | RRIRTRPPRLPRPRPRPVTSPRP | -0.0276
72 | RRIRKRPPRLPRPRPRPTINPRP | -0.184
73 | RRIRSRPPRLPRPRPRPFPQPRP | -0.201
74 | RRIRRRPPRLPRPRPRPGYRPRP | -0.119
75 | RRIRFRPPRLPRPRPRPQGEPRP | 0.00441

Row | Sequence | shrunken log2 fold change
76 | RRIRQRPPRLPRPRPRPVISPRP | 0.0289
77 | RRIRVRPPRLPRPRPRPIMSPRP | -0.0851
78 | RRIRLRPPRLPRPRPRPSSAPRP | -0.0182
79 | RRIRLRPPRLPRPRPRPWGAPRP | 0.261
80 | RRIRGRPPRLPRPRPRPMIDPRP | 0.967
81 | RRIRLRPPRLPRPRPRPMYNPRP | -0.273
82 | RRIRPRPPRLPRPRPRPYCQPRP | -0.223
83 | RRIRPRPPRLPRPRPRPAGSPRP | 0.206
84 | RRIRERPPRLPRPRPRPDHCPRP | -0.0389
85 | RRIRKRPPRLPRPRPRPKTSPRP | 0.489
86 | RRIRMRPPRLPRPRPRPQKGPRP | -0.0123
87 | RRIRTRPPRLPRPRPRPCMFPRP | -0.515
88 | RRIRVRPPRLPRPRPRPTEWPRP | 0.322
89 | RRIRTRPPRLPRPRPRPKKEPRP | -0.0512
90 | RRIRRRPPRLPRPRPRPARTPRP | 0.35
91 | RRIRRRPPRLPRPRPRPLCPPRP | 1.21
92 | RRIRHRPPRLPRPRPRPLCFPRP | -0.243
93 | RRIRPRPPRLPRPRPRPNIKPRP | -0.322
94 | RRIRKRPPRLPRPRPRPCTIPRP | -0.204
95 | RRIRKRPPRLPRPRPRPFVHPRP | -0.254
96 | RRIRYRPPRLPRPRPRPYIDPRP | -0.103
97 | RRIRDRPPRLPRPRPRPRHAPRP | 0.324
98 | RRIRHRPPRLPRPRPRPWGGPRP | 0.39
99 | RRIRLRPPRLPRPRPRPFDTPRP | -0.167
100 | RRIRFRPPRLPRPRPRPHMFPRP | -0.21

Row | Sequence | shrunken log2 fold change
101 | RRIRVRPPRLPRPRPRPDHNPRP | -0.488
102 | RRIRHRPPRLPRPRPRPANLPRP | -0.00674
103 | RRIRLRPPRLPRPRPRPNAVPRP | 0.00719
104 | RRIRTRPPRLPRPRPRPIDDPRP | -0.498
105 | RRIRLRPPRLPRPRPRPQLSPRP | -0.0956
106 | RRIRARPPRLPRPRPRPAMSPRP | 0.43
107 | RRIRGRPPRLPRPRPRPEQIPRP | 0.438
108 | RRIRDRPPRLPRPRPRPLPDPRP | 0.701
109 | RRIRKRPPRLPRPRPRPATPPRP | 0.939
110 | RRIRGRPPRLPRPRPRPVFQPRP | 0.519
111 | RRIRARPPRLPRPRPRPIYYPRP | -0.182
112 | RRIRKRPPRLPRPRPRPWLLPRP | 0.0409
113 | RRIRCRPPRLPRPRPRPFPHPRP | -0.175
114 | RRIRHRPPRLPRPRPRPCQWPRP | -0.0469
115 | RRIRSRPPRLPRPRPRPGSLPRP | -0.0216
116 | RRIRVRPPRLPRPRPRPGGKPRP | 0.171
117 | RRIRPRPPRLPRPRPRPQSNPRP | -0.285
118 | RRIRMRPPRLPRPRPRPMPHPRP | 0.161
119 | RRIRDRPPRLPRPRPRPRDEPRP | 0.12
120 | RRIRVRPPRLPRPRPRPHLTPRP | -0.333
121 | RRIRWRPPRLPRPRPRPLQDPRP | -0.0523
122 | RRIRMRPPRLPRPRPRPRDDPRP | 0.202
123 | RRIRNRPPRLPRPRPRPKKEPRP | 0.0493
124 | RRIRDRPPRLPRPRPRPGQQPRP | -0.0114
125 | RRIRVRPPRLPRPRPRPVSTPRP | -0.145
